Reference: patent US20040009568

Legend:
[1] = target: dephosphorylated α-casein (UniProt P02662)
Sequence of dephosphorylated α-casein (P02662 16-214): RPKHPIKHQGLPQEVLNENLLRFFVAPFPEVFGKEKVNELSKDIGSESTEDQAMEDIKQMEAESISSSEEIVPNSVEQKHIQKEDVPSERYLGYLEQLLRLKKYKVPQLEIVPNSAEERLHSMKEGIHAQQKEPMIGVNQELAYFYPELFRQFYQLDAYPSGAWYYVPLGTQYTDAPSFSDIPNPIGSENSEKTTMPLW

Substance	Km, Dephosphorylated α-casein (coupled, enzymatic format) [1]	Km (steady-state, coupled enzymatic assay, 37 C) (poly(Glu4Tyr))	kcat/Km (steady-state, coupled enzymatic assay, 37 C) (poly(Glu4Tyr))	autophosphorylation rate
phosphorylated HGFR (autophosphorylated catalytic domain of the human hepatocyte growth factor receptor kinase)	0.0285 ± 0.0035 mM	8.19 mM	9260 s^-1M^-1	–
catalytic domain of the human hepatocyte growth factor receptor kinase (HGFRkd), unphosphorylated	–	10.1 mM	48.1 s^-1M^-1	The HGFR autophosphorylation rate is dependent on the concentration of HGFR.
